Key:
Test in all cases: SPR
pPGT121 = biological target: pPGT121
pVRC07-523-LS = biological target: pVRC07-523-LS
pPGT121-YTE = biological target: pPGT121-YTE
pPGT121-LS = biological target: pPGT121-LS

Measured: Kd

Rhesus macaque FcγR IIIa-1 (from UniProt A3RFZ7 21-254) (receptor)
> 20 µM: all assays above

Rhesus macaque FcγR IIIa-3 (from UniProt A3RFZ7 21-254) (receptor)
> 20 µM: all assays above

Rhesus macaque FcγR IIa-2 (receptor)
> 20 µM: all assays above

Rhesus macaque FcγR IIa-4 (receptor)
> 20 µM: all assays above

Rhesus macaque FcγR IIb-1 (receptor)
> 20 µM: all assays above
